The record followed here is patent US20200200751A1 (ECS PROGASTRIN, published 2020).

To fix the notation:
T1: human progastrin (full length, recombinant, produced in E. coli, tag removed) (human)
T1 construct: also called hPG; PG
T1 chain: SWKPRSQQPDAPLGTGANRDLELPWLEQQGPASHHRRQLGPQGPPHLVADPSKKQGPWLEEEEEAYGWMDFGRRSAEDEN

B1: mAb3 (hybridoma 6B51311C10) (antibody, V domains shown)
VH: EVQLQQSGTVLARPGASVKMSCKASGYIFTSYWVHWVKQRPGQGLEWIGGFYPGNSDSRYNQKFKGKATLTAVTSASTAYMDLSSLTNEDSAVYFCTRRDSPQYWGQGTTLTVSS
VL: DVLMTQTPLSLPVSLGDQASISCRSSQSIVHSNGNTYLEWYLQKPGQSPKLLIYKVSNRFSGVPDRFSGSGSGTDFTLKISRLEAEDLGVYYCFQGSHVPFTFGGGTKLEIK
notes: Murine variable domains (mVH 3 / mVL 3) of the hybridoma antibody
B2: mAb16 (hybridoma 1E9D9B6) (antibody, V domains shown)
VH: QVQLQQSGAELVKPGASVKLSCKASGYTFTSYYMYWVKQRPGQGLEWIGEINPSNGGTNFNEKFKSKATLTVDKSSSTAYMQLSSLTSEDSAVYYCTRGGYYPFDYWGQGTTLTVSS
VL: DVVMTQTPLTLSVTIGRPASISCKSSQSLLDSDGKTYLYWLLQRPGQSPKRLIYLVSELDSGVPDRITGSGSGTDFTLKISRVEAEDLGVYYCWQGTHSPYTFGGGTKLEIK
notes: Murine variable domains (mVH 16 / mVL 16)
B3: mAb13 (hybridoma 2C6C3C7) (antibody, V domains shown)
VH: EVQLVESGGGLVQPGGSLKLSCAASGFIFSSYGMSWVRQSPDRRLELVASINTFGDRTYYPDSVKGRFTISRDNAKNTLYLQMTSLKSEDTAIYYCARGTGTYWGQGTTLTVSS
VL: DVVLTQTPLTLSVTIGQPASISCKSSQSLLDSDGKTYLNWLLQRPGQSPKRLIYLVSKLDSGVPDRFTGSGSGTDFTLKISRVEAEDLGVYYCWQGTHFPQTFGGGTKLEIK
notes: Murine variable domains (mVH 13 / mVL 13)
B4: mAb4 (hybridoma 20D2C3G2) (antibody, V domains shown)
VH: QVQLQQSGAELMKPGASVKISCKATGYTFSSSWIEWLKQRPGHGLEWIGEFLPGSGSTDYNEKFKGKATFTADTSSDTAYMLLSSLTSEDSAVYYCATDGNYDWFAYWGQGTLVTVSA
VL: DLVMTQTPLSLPVSLGDQASISCRSSQSLVHSSGVTYLHWYLQKPGQSPKLLIYKVSNRFSGVPDRFSGSGSGTDFTLKISRVEAEDLGVYFCSQSTHVPPTFGSGTKLEIK
notes: Murine variable domains (mVH 4 / mVL 4)

This experiment addresses T1, human progastrin (full length, …). In words: epitope mapping (details not given).
For B1, the binding result is “binds”.
The same measure for B2: “binds”; for B3: “binds”; for B4: “binds”.
